Patent US20100280101, “METHOD OF INHIBITING CANCER CELL PROLIFERATION, PROLIFERATION INHIBITOR AND SCREENING METHOD” (University of Occupational and Environmental Health Japan, published 2010)

T1: ZNF143 (UniProt P52747 SEQ:1-638)
T1 sequence: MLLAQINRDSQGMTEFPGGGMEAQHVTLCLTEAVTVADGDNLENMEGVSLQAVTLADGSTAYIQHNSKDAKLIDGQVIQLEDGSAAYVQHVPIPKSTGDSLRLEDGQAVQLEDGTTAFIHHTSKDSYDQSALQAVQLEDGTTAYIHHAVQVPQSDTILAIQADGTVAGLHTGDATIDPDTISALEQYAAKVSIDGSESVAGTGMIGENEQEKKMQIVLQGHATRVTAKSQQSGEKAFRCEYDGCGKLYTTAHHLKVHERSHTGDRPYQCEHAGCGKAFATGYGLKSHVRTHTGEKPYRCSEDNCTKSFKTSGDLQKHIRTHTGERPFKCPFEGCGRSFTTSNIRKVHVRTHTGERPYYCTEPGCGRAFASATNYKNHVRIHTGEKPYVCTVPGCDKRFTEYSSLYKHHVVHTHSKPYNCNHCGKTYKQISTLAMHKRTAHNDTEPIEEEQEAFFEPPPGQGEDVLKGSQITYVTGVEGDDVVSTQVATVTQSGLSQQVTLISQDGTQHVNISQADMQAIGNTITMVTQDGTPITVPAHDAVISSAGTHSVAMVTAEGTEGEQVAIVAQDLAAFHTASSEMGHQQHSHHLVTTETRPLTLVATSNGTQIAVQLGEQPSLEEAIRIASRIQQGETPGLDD

B1: AURKB promoter site (dsDNA)
DNA 1: CCTCGGCTTCCCAAAATGCTGGGAT
DNA 2: ATCCCAGCATTTTGGGAAGCCGAGG
B2: CDK2 promoter site (dsDNA)
DNA 1: CATTGCTTTCCCATCCTGCTACTCA
DNA 2: TGAGTAGCAGGATGGGAAAGCAATG
B3: CCNA2 promoter site (dsDNA)
DNA 1: CAGGCACTGCCCAGCGTGGCGAGCC
DNA 2: GGCTCGCCACGCTGGGCAGTGCCTG
B4: CDC2L6 promoter site 1 (dsDNA)
DNA 1: AATACAGCTCCCAGGTTACCTCGGG
DNA 2: CCCGAGGTAACCTGGGAGCTGTATT
B5: MCM2 promoter site (dsDNA)
DNA 1: CCTCGGCTTCCCAAAGTGCTGGGAT
DNA 2: ATCCCAGCACTTTGGGAAGCCGAGG
B6: PLK1 promoter site 1 (dsDNA)
DNA 1: CAGGGCGCTCCCATGGTGCCGCGCG
DNA 2: CGCGCGGCACCATGGGAGCGCCCTG
B7: CDCA3 promoter site (dsDNA)
DNA 1: GACGTAGTTCCCATAGGCCCTCCAC
DNA 2: GTGGAGGGCCTATGGGAACTACGTC
B8: RFC2 promoter site (dsDNA)
DNA 1: GGTGGAATTCCCATCTTGCAGCCGA
DNA 2: TCGGCTGCAAGATGGGAATTCCACC
B9: RFC4 promoter site (dsDNA)
DNA 1: CCAGCCTAGCCCACTGTGCATGAAG
DNA 2: CTTCATGCACAGTGGGCTAGGCTGG
B10: CDC6 promoter site (dsDNA)
DNA 1: ACTACGCCTCCCAGCGTGCTTTGCG
DNA 2: CGCAAAGCACGCTGGGAGGCGTAGT
B11: WEE1 promoter site (dsDNA)
DNA 1: TTAATCTGTCCCTTAATGCACTTAC
DNA 2: GTAAGTGCATTAAGGGACAGATTAA
B12: CDCA8 promoter site 1 (dsDNA)
DNA 1: ACTACTACTCCCGGCAGGCCTTGTG
DNA 2: CACAAGGCCTGCCGGGAGTAGTAGT
B13: SPBC25 promoter site (dsDNA)
DNA 1: ACTACGAATCCCAGAATGCCCTGTT
DNA 2: AACAGGGCATTCTGGGATTCGTAGT
B14: GTSE1 promoter site (dsDNA)
DNA 1: ACTACAATACCCAGGACGCACCCAG
DNA 2: CTGGGTGCGTCCTGGGTATTGTAGT
B15: CDT1 promoter site 1 (dsDNA)
DNA 1: CCCTTCCCTCCCCCCGTGCTCTGCC
DNA 2: GGCAGAGCACGGGGGGAGGGAAGGG
B16: CDC2L6 promoter site 2 (dsDNA)
DNA 1: ACTTCATTTCCCAGGAGCCTCCGCG
DNA 2: CGCGGAGGCTCCTGGGAAATGAAGT
B17: PFS2 promoter site (dsDNA)
DNA 1: TCTCGACTTCCCAAAGTGCTGGGAT
DNA 2: ATCCCAGCACTTTGGGAAGTCGAGA
B18: CDCA5 promoter site (dsDNA)
DNA 1: TGCGCCTCTCCCTTCAGCCCCGGCC
DNA 2: GGCCGGGGCTGAAGGGAGAGGCGCA
B19: CDCA8 promoter site 2 (dsDNA)
DNA 1: CCCGCCCTCCCCACCAACCCACCCG
DNA 2: CGGGTGGGTTGGTGGGGAGGGCGGG
B20: ZNF367 (CDC14B) promoter site (dsDNA)
DNA 1: CGGGTCCTTCCCACCTCGCCATTGG
DNA 2: CCAATGGCGAGGTGGGAAGGACCCG
B21: CCNF promoter site (dsDNA)
DNA 1: ACCCCCAGCTTGCACGGCC
DNA 2: GGCCGTGCAAGCTGGGGGT
B22: CCNE2 promoter site (dsDNA)
DNA 1: CTTCCCACCCGGCCAGGTC
DNA 2: GACCTGGCCGGGTGGGAAG
B23: MCM4 promoter site 1 (dsDNA)
DNA 1: GTACCCACCCAGCACCGCG
DNA 2: CGCGGTGCTGGGTGGGTAC
B24: BIRC5 (survivin) promoter site (dsDNA)
DNA 1: GCCCCCACCCTCCACTGGG
DNA 2: CCCAGTGGAGGGTGGGGGC
B25: MCM3 promoter site (dsDNA)
DNA 1: ACTCCCAGAACGCAATGCC
DNA 2: GGCATTGCGTTCTGGGAGT
B26: CDKN2C promoter site (dsDNA)
DNA 1: ATCCCCAAAATCCAAGCCA
DNA 2: TGGCTTGGATTTTGGGGAT
B27: ESPL1 promoter site 1 (dsDNA)
DNA 1: TTACCCGCCGCGCTGCGCG
DNA 2: CGCGCAGCGCGGCGGGTAA
B28: ESPL1 promoter site 2 (dsDNA)
DNA 1: ACTCCCAGCGTGCCGCGCG
DNA 2: CGCGCGGCACGCTGGGAGT
B29: CDCA4 promoter site (dsDNA)
DNA 1: GCTCCCAGGTCTCCGCGCG
DNA 2: CGCGCGGAGACCTGGGAGC
B30: CDT1 promoter site 2 (dsDNA)
DNA 1: CCTCCCCCCGTGCTCTGCC
DNA 2: GGCAGAGCACGGGGGGAGG
B31: BUB1 promoter site (dsDNA)
DNA 1: TCTCCCCACCTGCCTCCCG
DNA 2: CGGGAGGCAGGTGGGGAGA
B32: MCM5 promoter site (dsDNA)
DNA 1: GTGCCCATTTTGCATTGGG
DNA 2: CCCAATGCAAAATGGGCAC
B33: UHRF1 promoter site (dsDNA)
DNA 1: ACTCCCAGGATGCCCTTCC
DNA 2: GGAAGGGCATCCTGGGAGT
B34: MCM4 promoter site 2 (dsDNA)
DNA 1: TTTCCCGGGGACCCCTGCG
DNA 2: CGCAGGGGTCCCCGGGAAA
B35: PLK1 promoter site 2 (dsDNA)
DNA 1: GCTCCCATGGTGCCGCGCG
DNA 2: CGCGCGGCACCATGGGAGC

target: T1, ZNF143; assay: EMSA; also ChIP; binding retained without 5'-terminal 6 bases

| Binder | binding result |
| --- | --- |
| B1 | binds |
| B2 | binds |
| B3 | binds |
| B4 | binds |
| B5 | binds |
| B6 | binds |
| B7 | binds |
| B8 | binds |
| B9 | binds |
| B10 | binds |
| B11 | binds |
| B12 | binds |
| B13 | binds |
| B14 | binds |
| B15 | binds |
| B16 | binds |
| B17 | binds |
| B18 | binds |
| B19 | binds |
| B20 | binds |

target: T1, ZNF143; assay: EMSA; also ChIP

| Binder | binding result |
| --- | --- |
| B21 | binds |
| B22 | binds |
| B23 | binds |
| B24 | binds |
| B25 | binds |
| B26 | binds |
| B27 | binds |
| B28 | binds |
| B29 | binds |
| B30 | binds |
| B31 | binds |
| B32 | binds |
| B33 | binds |
| B34 | binds |
| B35 | binds |
